Results as given in patent US20240252732A1 (IMMUNICOM, published 2024).

Columns and labels:
[1] = target: T1, soluble TNF receptor 1 (sTNF-R1) (human, UniProt P19438 30-211); assay: equilibrium KD; method not stated
T1 construct: extracellular domain
T1 sequence (looked up): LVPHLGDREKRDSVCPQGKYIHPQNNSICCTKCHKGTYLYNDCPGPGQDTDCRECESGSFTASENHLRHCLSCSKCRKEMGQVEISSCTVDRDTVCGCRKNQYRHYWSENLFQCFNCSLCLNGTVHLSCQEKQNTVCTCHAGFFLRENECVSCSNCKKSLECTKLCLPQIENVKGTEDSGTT

[2] = target: T2, soluble TNF receptor 2 (sTNF-R2) (human, UniProt P20333 23-257); assay: equilibrium KD; method not stated
T2 construct: extracellular domain
T2 sequence (looked up): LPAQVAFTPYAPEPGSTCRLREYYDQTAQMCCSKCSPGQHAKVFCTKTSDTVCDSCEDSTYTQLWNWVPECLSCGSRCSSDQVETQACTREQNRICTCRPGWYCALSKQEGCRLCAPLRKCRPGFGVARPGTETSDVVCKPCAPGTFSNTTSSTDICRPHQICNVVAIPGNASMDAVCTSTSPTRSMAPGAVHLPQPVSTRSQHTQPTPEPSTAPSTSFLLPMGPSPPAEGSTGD

B1: SEQ11 modified single chain TNF (scTNF) (ligand)
chain: THHHHHHHHHHAGGAENLYFQGSASSSSRTPSDKPVAHVVANPQAEGQLQWVNRRANALLANGVELRDNQLVVPSEGLYLIYSQVLFKGQGCPSTHVLLTHTISRIAVSYQTKVNLLSAIKSPCQRETPEGAEAKPWYEPIYLGGVFQLEKGDRLSAEINRPDYLDFDDDGQVYFGIIALGGGSGGGSGGGSGGGSSSRTPSDKPVAHVVANPQAEGQLQWVNRRANALLANGVELRDNQLVVPSEGLYLIYSQVLFKGQGCPSTHVLLTHTISRIAVSYQTKVNLLSAIKSPCQRETPEGAEAKPWYEPIYLGGVFQLEKGDRLSAEINRPDYLDFDDDGQVYFGIIALGGGSGGGSGGGSGGGSSSRTPSDKPVAHVVANPQAEGQLQWVNRRANALLANGVELRDNQLVVPSEGLYLIYSQVLFKGQGCPSTHVLLTHTISRIAVSYQTKVNLLSAIKSPCQRETPEGAEAKPWYEPIYLGGVFQLEKGDRLSAEINRPDYLDFDDDGQVYFGIIAL
notes: also called TNF variant trimer
Kd [1]: 100 nM
Kd [2]: 12 nM
